Test results taken from article PMC7206793 (Science (New York, N.Y.), 2019).

T1: β-catenin (on the human protein microarray) (human, UniProt P35222 1-781)
T1 sequence (looked up): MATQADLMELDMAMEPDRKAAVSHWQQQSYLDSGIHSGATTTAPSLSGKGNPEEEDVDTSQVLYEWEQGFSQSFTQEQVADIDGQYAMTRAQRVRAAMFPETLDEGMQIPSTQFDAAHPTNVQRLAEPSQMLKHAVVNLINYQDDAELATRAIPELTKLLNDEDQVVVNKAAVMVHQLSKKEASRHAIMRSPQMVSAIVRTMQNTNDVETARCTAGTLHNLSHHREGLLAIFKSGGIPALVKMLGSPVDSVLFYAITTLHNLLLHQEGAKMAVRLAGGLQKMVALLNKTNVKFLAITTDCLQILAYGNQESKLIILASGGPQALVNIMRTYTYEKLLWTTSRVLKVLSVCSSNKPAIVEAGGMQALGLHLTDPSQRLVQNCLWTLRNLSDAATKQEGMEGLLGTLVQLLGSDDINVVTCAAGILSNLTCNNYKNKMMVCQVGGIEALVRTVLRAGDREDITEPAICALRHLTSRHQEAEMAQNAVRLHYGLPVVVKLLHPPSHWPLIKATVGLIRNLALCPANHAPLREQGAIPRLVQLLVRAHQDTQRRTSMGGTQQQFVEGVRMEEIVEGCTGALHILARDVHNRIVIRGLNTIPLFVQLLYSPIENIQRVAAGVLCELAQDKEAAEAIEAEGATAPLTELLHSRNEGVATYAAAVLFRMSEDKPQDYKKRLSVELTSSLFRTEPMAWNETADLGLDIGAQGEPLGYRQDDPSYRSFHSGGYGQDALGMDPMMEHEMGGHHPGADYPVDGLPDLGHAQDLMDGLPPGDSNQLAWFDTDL

B1: casein kinase 1 ε (on the human protein microarray) (natural protein, UniProt P49674 1-416, looked up)
chain: MELRVGNKYRLGRKIGSGSFGDIYLGANIASGEEVAIKLECVKTKHPQLHIESKFYKMMQGGVGIPSIKWCGAEGDYNVMVMELLGPSLEDLFNFCSRKFSLKTVLLLADQMISRIEYIHSKNFIHRDVKPDNFLMGLGKKGNLVYIIDFGLAKKYRDARTHQHIPYRENKNLTGTARYASINTHLGIEQSRRDDLESLGYVLMYFNLGSLPWQGLKAATKRQKYERISEKKMSTPIEVLCKGYPSEFSTYLNFCRSLRFDDKPDYSYLRQLFRNLFHRQGFSYDYVFDWNMLKFGAARNPEDVDRERREHEREERMGQLRGSATRALPPGPPTGATANRLRSAAEPVASTPASRIQPAGNTSPRAISRVDRERKVSMRLHRGAPANVSSSDLTGRQEVSRIPASQTSVPFDHLGK
B2: Flag (N-terminus)- and V5 (C-terminus)-tagged recombinant human Lmbr1l protein (natural protein, UniProt Q6UX01 1-489, looked up)
chain: MEAPDYEVLSVREQLFHERIRECIISTLLFATLYILCHIFLTRFKKPAEFTTVDDEDATVNKIALELCTFTLAIALGAVLLLPFSIISNEVLLSLPRNYYIQWLNGSLIHGLWNLVFLFSNLSLIFLMPFAYFFTESEGFAGSRKGVLGRVYETVVMLMLLTLLVLGMVWVASAIVDKNKANRESLYDFWEYYLPYLYSCISFLGVLLLLVCTPLGLARMFSVTGKLLVKPRLLEDLEEQLYCSAFEEAALTRRICNPTSCWLPLDMELLHRQVLALQTQRVLLEKRRKASAWQRNLGYPLAMLCLLVLTGLSVLIVAIHILELLIDEAAMPRGMQGTSLGQVSFSKLGSFGAVIQVVLIFYLMVSSVVGFYSSPLFRSLRPRWHDTAMTQIIGNCVCLLVLSSALPVFSRTLGLTRFDLLGDFGRFNWLGNFYIVFLYNAAFAGLTTLCLVKTFTAAVRAELIRAFGLDRLPLPVSGFPQASRKTQHQ

Assays:
[1] = target: B2; assay: peptide or protein array
[2] = target: T1, β-catenin (on the human protein …); assay: peptide or protein array

B1
binding result [1]: binds

B2
binding result [2]: binds
